Assay results reported in patent US12286661B2, “Methods for making high intensity sweeteners” (Firmenich Incorporated, priority 2018, dated 2025).

B1: SEQ ID NO. 1040/1041: CYP450 enzyme (DNA/protein SEQ ID NO) producing 11-OH cucurbitadienol (protein, listed as Siraitia grosvenorii)
chain: MEVELTNFWVMILAAVLGFCVFVFGFLRRFNDLWTMVKLGKKVYKTLPPGDMGWPLIGSSLWFYKAFSASGDPDSFIKHLRSRYGRVGMYKTHLFGKPAVIVTDPEICRRVYSDDKHFVMSYPKSVKILGTGSLSRIDHRITHRFMAAPINGSEALARYVGFIEQVVVRGLEEWSSMRKPIELLHEIKRLTFRIIIHVFMGSALDPHIPKLEKLYAELSAAVFVAFAIDVPGSTYHRALKAKEEIQNILRPVIEEKRRIIEKNEEMEDKCQLDAVIKGKNGKGEKIFDNDAIIDMLLGLLYAGHHTSAHGTMWALIQLLEHPQVYEKAKEEQELIMKQRPSTQKGLIFNEIKQMTYLVKVINEMLRRVSIVFANFREAATDVNINGYTIPKGWVVPVWIKGVHMDPQIYPNPEEFNPSRWDTHTPKPGAFIPFGFGNRFCPGNELAKLEITILLHHFLLKYRWERVNPKASITSVPMPSPIDQCLAKITAIPSS
B2: SEQ ID NO. 1046/1047: CYP450 enzyme (DNA/protein SEQ ID NO) producing 11-OH cucurbitadienol (protein, listed as Siraitia grosvenorii)
chain: MELWLWLLGASVGAYVFVFGILRNLNQWRFVTRHRNRYNLPPGDMGWPLIGTLLPFLQAFRSGRPDSFIHYFASTYGKIGMYKTYLFGSPSVIVCLPEVCRHVLMNDEQFVFGYSKATRILTGSKALNTVPKAEHRRLRRLIASLISGNDALSVYIGHVEGIVINCLQEWGSMKKPVEFLSEMKTVAFKVLLHIFIGSTSAAFIDKMEKLYTDFHLGFMSTPIDLPGTTFSRALKARNELIRIFENVLKEKRANLKSKEGENRKKDMTDLLLEVRDEDGQGLDDGCIIDLLIGFFFAGHETSAHSIMRAIMFLSENPETLLKAKAEQEQIVKARPADDQHKGLTMKEIKQMEYLSKVIDETLRKTSLAFTLSRETKVDVNLNGYTIPKGWKILVWTRAVHMDPEIYESPQKFDPSRWDNSKRRAGSFIPFGAGMRLCPGIDLSKLEIAIFLHYFIYGGFRLERVNPNCPENYLPLARPTDNCLARVVRDS
B3: SEQ ID NO. 1032/1033: CYP450 enzyme (DNA/protein SEQ ID NO) producing 11-OH cucurbitadienol (protein, listed as Cucurbita maxima)
chain: MWTIVVGLATLAVAYYIHWINKWKDSKFNGVLPPGTMGLPLIGETLQLSRPSDSLDVHPFIKKKVKRYGSIFKTCLAGRPVVVSTDAEFNNYIMLQEGRAVEMWYLDTLSKFFGLDTEWLKALGFIHKYIRSITLNHFGAESLRERFLPRIEESAKETLCYWATQPSVEVKDSAAVMVFRTSMVKMVSKDSSKLLTGGLTKKFTGLLGGFLTLPINVPGTTYNKCMKDMKEIQKKLREILEGRLASGAGSDEDFLGQAVKDKGSQKFISDDFIIQLLFSISFASFESISTTLTLILNYLADHPDVVKELEAEHEAIRNARADPDGPITWEEYKSMTFTLHVIFETLRLGSVTPALLRKTTKELQINGYTIPEGWTVMLVTASRHRDPAVYKDPHTFNPWRWKELDSITIQKNFMPFGGGLRHCAGAEYSKVYLCTFLHILFTKYRWTKLKGGKVARAHILSFEDGLHMKFTPKE
B4: SEQ ID NO. 1042/1043: CYP450 enzyme (DNA/protein SEQ ID NO) producing 11-OH cucurbitadienol (protein, listed as Siraitia grosvenorii)
chain: MAIFFFFFFFLLVVSVVFVFLFLRASRFRRVRLPPGSLGLPLIGETLQLISAYKTENPEPFIDERVRRFGAVFTTHLFGEPTVFSADWETNRFILQNEEKLFECSYPGSISNLLGKHSLLLMKGNLHKRMHSLTMSFANSSIIRDHLLLDVDRLIRLNLDSWTGRIFLMEEAKKITFELAVKQLMSFDRCEWTQNLMKEYLLVIEGFFTVPLPLLSTTYRRAIRARTKVAEALGLVVRQRRKESDAGKRKNDMLGALLAAEDALSDDQIVDFLLALLVAGYETTSTTMTLAVKFLTEAPLALTQLQEEHEQIKARKKEADQHLQWNDYKSMPFTQCVVNETLRVANIISGVFRRAMTDINIKGYTIPKGWKVFASFRAVHLDHDHFKDARSFNPWRWQQNTSGSTVNAFTPFGGGPRLCPGYELARVELSVFLHHFVTQFSWVPAEDDKLVFFPTTRTQKRYPINVMRKNETRQRKDSLDSRHMKGQESSFDM
B5: SEQ ID NO. 1034/1035: CYP450 enzyme (DNA/protein SEQ ID NO) producing 11-OH cucurbitadienol (protein)
chain: MEIINGVFLILPLGFVLVFEVLKRLNGLYYAVKLGKKWGELPPGDLSWPLLGSTLSFLKSFTVGPPESFIRIFTTRYGKVDMYKTHMFGRASILVCKPEICRQVLIDETKFVPSYPACMKRLFGRKSLIRVSKAEHRKLRRMTMAPISSHAALEIYIEHTEHTVISGLEEWSSVEKPLKLLTEIKELTFKIIWNIFMGSTSIDYTTKEMEALYDDVALGLFCFPINFPGFNFHKSLKARKRLYEILLSIVNEKRLMKKSKGESWEAKDMMDLMTEVEDEDGEGMDNETITDLIFGKLFAGHETSAFTTMWAIIFLTDHPHIFQRAKEEQEDIIRRRPSTQKGINLVEFKQMKFLSQVIDETLRLSSIAFATFREATTDININGKLIPKGWKVILWHRGLYMDEELHPSPQDFNPSRWDDFIGNPGAFTPFGLGVRLCPGRDLAKLEISIFLHHFLLNYKIERYNPQCQLTYLPLPHPKDKCLARVLKAAGQCV
modifications: Cucurbita pepo
B6: SEQ ID NO. 1038/1039: CYP450 enzyme (DNA/protein SEQ ID NO) producing 11-OH cucurbitadienol (protein, listed as Siraitia grosvenorii)
chain: MLSFLGFAAFFFCFFLIHSLFKLFSAARRKLPLPPGSMGWPYMGETLQLYSQDPNVFFASKKKRYGPIFKSHILGYPCVMLSSPEAVKFVLVTKAHLFKPTFPASKERMLGKNAIFFHQGDYHAKLRRLVLRTFMPEAIRIMVPSIESIAKNTVQSWEGQLINTFQEMKMFAFEVSLLSIFGKDEALYFEDLKRCYYILEKGYNSMPINLPGTLFHKAMKARKELAHILNKILSTRREMKPDHNDLLGSFMGQKEGLTDEQIADNVIGLIFAARDTTASVLTWILKYLGENPSVLQAVTAEQEAIMKQKRSAHDNLTWGDTKNMPITSRVIQETLRVASVLSFTFREAVEDVEFDGYLIPKGWKVLPLFRNIHHSPEIFPQPDKFDPSRFEVAQKPNTYMPFGSGTHSCPGNELAKLEMLVLLHHLTTKYRWSVVGAQEGIQYGPFALPHNGLPIRISLKK
B7: SEQ ID NO. 1044/1045: CYP450 enzyme (DNA/protein SEQ ID NO) producing 11-OH cucurbitadienol (protein, listed as Siraitia grosvenorii)
chain: MDELKWFVLIPATFFLVVFVFEVLKRLNGWYYATKLWKIWDELPPGDMGWPLLGSTLSYINDFTAGQPQNFIRTFSNRYGKADMYKTHILGRASIIICTPEICRQVLTNEDKFKPSLPGNMKILSGRKSLMQVSKAEHRRLRRLTMAPISGHAALEMYISHIQATVVGGLEEWASIQRPVELVTEIKRLTFKVIWNIFMGSTSLDSSMGAMEALFSDVAVGFLSLPINFPGFYFHKSLKARKRLIEILQSIINEKRLVKKSKGESWEAKDMMDLMIEVKDEDGEELDDETIIDLIFGKLFAGHETSAFTAMWAVLFLTDHPQIFQKAKEEQEEIIRRRPSTQKGINLSDYKQMKFLSQVIDETLRVSCITSLLFREATADVEINGKIIPKGWRVLPWLGMLYMDENLFPSPQEFNPSRWDNFVPKPGAFIPFGVGNRFCPGSDLAKLEISIFLHYFLLNYKVERLNPKCHLTCLPFPHPTDKCLARVHKVA
B8: SEQ ID NO. 1036/1037: CYP450 enzyme (DNA/protein SEQ ID NO) producing 11-OH cucurbitadienol (protein, listed as Lagenaria siceraria)
chain: MELIINNWLLILSCVGFALGLGVLKRLNNLYYAIKLGKKWDEVPPGDLSWPLLGSTLSFIKYFTLGPPHNFIAQFSNRYGKVDMYKTHIFGRASIIVCKPEICRQVLTDETKFAPGYPTTMTSLFGRRSLHRVSKVEHRKLRRLTTTPISSHAALELYIDHIEHTVINGLEEWSSMEKPLELLTVIKELTFKIIWNIFMGSTPMGSIAIREMEALYNDISLGFFCLPINFPGFYFHKSLKARKRLHEILQCIVNEKRLVKKSKGETWEAKDMMDLMIEVRDEDGEGMDDETIVDLIFGKLFAGQETSAFTTMWAILFLTNNPHVFQKAKVIDETLRVSSITFATFREAMTDVKINGKIIPKGWKVILWLRELNMDEKLHTSPQEFNPSRWDNFIGNPGAFTPFGLGVRMCPGRDLAKLEISIFLHYFLLNYKVEQLNPQCQLDYLPIPHPKDKCLARVLKVA

Each molecule was assayed on cucurbitadienol (assay: 11-OH cucurbitadienol production from cucurbitadienol by CYP450s expressed in S. cerevisiae, LCMS). Settings: S. cerevisiae strain producing cucurbitadienol and expressing SgCPR; LCMS peak area of product vs. internal reference; hits over vector only control.
Format: cell-based
Description: DNA was obtained through gene synthesis either through Genescript, IDT, or Genewiz. For some of the cucurbitadienol synthases, cDNA or genomic DNA was obtained through 10-60 day old seedlings followed by PCR amplification using specific and degenerate primers. DNA was cloned through standard molecular biology techniques or through yeast gap repair cloning (Joska et al., 2014) into one of the following overexpression vectors: pESC-Ura, pESC-His, or pESC-LEU. Gene expression was regulated by one of the following promoters; Gall, Gal10, Tef1, or GDS. Yeast transformation was performed using Zymo Yeast Transformation Kit II. Yeast strains were grown in standard media (YPD or SC) containing the appropriate selection with 2% glucose or 2% galactose for induction of heterologous genes. Yeast strains were grown in shake flask or 96 well plates at 30° ° C., 140-250 rpm. When indicated, lanosterol synthase inhibitor, Ro 48-8071 (Cayman Chemicals) was added (50 ug/ml). Yeast samples producing mogrol precursors, mogrol and mogrosides were processed through one of the following: • Cucurbitadienol and 11-OH Cucurbitadienol: Samples cell pellets were lysed (Yeast Buster) followed by ethyl acetate extraction, drying, and resuspension in methanol. • ·Mogrol and Mogrosides: Samples cell pellets were lysed in 50% ETOH, incubated at 80° C. for 30 min, filtered, dried and resuspended in MeOH for LCMS screening.
For analyzing 11-OH cucurbitadienol, the LCMS method included the use of C8 2.1×100 mm column, gradient 60 to 90% B for 6 minutes at flow rate of 0.55 ml/min. For the enzyme screening, the LCMS method used was a Waters Acquity UPLC Protein BEH C4, 2.1×100 mm, 1.7 μm column and a gradient of 40% to 80% over 5 minutes, 95% B from 5.1 to 5.6 minutes with a flow rate of 0.55 ml/min, and ESI source positive mode single ion monitoring of 425.4.
Additional CYP450s were expressed in S. cerevisiae strain producing cucurbitadienol and expressing SgCPR. DNA and protein sequences for the CYP450 enzymes are shown in SEQ IDs 871-890 and 1024-1049 (see Table 1).
With B1 the “Peak Area 11-OH CCB” value was 0.3523. With B2 the “Peak Area 11-OH CCB” value was 0.2276. B3 was tested, and the “Peak Area 11-OH CCB” value was 0.4459. With B4 the “Peak Area 11-OH CCB” value was 0.3326. For B5, the “Peak Area 11-OH CCB” value was 0.3854. With B6 the “Peak Area 11-OH CCB” value was 0.3528. B7 was tested, and the “Peak Area 11-OH CCB” value was 0.2664. In the case of B8, the “Peak Area 11-OH CCB” value is reported as 0.3833.
